The data set concerns the target T1, PRIN2;CSP41b (Arabidopsis thaliana?;Arabidopsis thaliana?) (UniProt Q9XIK0+Q9SA52).
T1 sequence 1: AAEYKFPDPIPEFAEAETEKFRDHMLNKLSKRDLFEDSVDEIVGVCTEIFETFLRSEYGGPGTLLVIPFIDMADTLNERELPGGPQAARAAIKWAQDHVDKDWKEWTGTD
T1 sequence 2: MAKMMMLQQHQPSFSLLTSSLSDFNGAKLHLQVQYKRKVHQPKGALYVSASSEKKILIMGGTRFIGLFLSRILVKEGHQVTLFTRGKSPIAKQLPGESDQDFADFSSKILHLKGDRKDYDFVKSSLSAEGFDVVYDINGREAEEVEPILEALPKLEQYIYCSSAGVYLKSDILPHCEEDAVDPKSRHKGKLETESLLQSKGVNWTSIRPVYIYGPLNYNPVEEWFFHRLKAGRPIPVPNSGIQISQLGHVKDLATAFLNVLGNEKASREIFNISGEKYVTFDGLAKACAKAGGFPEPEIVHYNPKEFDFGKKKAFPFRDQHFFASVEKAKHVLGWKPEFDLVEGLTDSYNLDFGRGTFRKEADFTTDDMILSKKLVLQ
The data set is described as follows: EMSA. As to conditions: EMSA: 10 mM Tris-HCl, 25 mM KCl, 1 mM DTT (1x from 10x stock; pH not stated), 1 ug poly(dI-dC) per 25 uL, 2.5% glycerol, 0.05% Triton X-100, 5 mM MgCl2, 10 mM ….

The results in this text go back to PMC4130184.

Consider “ACCCACTACGGATCGTATTCAATCGTATTCATATGATTTGGAAAAAATATTCCTAGAGCAATTCTATTTCTATGTATGTGGATTCGCTTCTAATTTATTTCATCGATTACAAAAAATTTTTTATGAATCTAAACTAAAAGGATCTTATCCATTTTACATTGGTTGACATGGCTATATAAGTCATGTTATACTGTTTC (double strand) [psbA promoter probe (197/198 bp)]”, for which the binding entry is reported as “binds”.
